Results reported in patent publication US20230346885A1 (published 2023).
Blank lines part the entries; values can stand above or below the binder they belong to.

How the values were obtained:
Assay in all cases: binding, other
PAEP peptide on HLA [1] = target: T1, PAEP peptide on HLA (human)
T1 peptide: TLLDTDYDNFL

PAEP peptide on HLA [2] = target: T2, PAEP peptide on HLA (human)
T2 peptide: MMCQYLARV

LGSN peptide on HLA = target: T3, LGSN peptide on HLA (human)
T3 peptide: ALGETFIRYFV

BRDT peptide on HLA = target: T4, BRDT peptide on HLA (human)
T4 peptide: RLLDVNNQL

KLK4 peptide on HLA = target: T5, KLK4 peptide on HLA (human)
T5 peptide: SIASQCPTA

PIWIL1 peptide on HLA [3] = target: T6, PIWIL1 peptide on HLA (human)
T6 peptide: SLSNRLYYL

NPSR1 peptide on HLA = target: T7, NPSR1 peptide on HLA (human)
T7 peptide: AINPLIYCV

PIWIL1 peptide on HLA [4] = target: T8, PIWIL1 peptide on HLA (human)
T8 peptide: SLIQNLFKV

ASCL2 peptide on HLA = target: T9, ASCL2 peptide on HLA (human)
T9 peptide: ALSPAERELL

PAEP peptide on HLA [5] = target: T10, PAEP peptide on HLA (human)
T10 peptide: LLDTDYDNFL

XAGE1 peptide on HLA = target: T11, XAGE1 peptide on HLA (human)
T11 peptide: ISQTPGINL

binding result (PAEP peptide on HLA [1]): recognises
B1: TCR of SEQ ID NOs 481 and 482 (TCR, V domains shown)
Valpha: KQEVTQIPAALSVPEGENLVLNCSFTDSAIYNLQWFRQDPGKGLTSLLLIQSSQREQTSGRLNASLDKSSGRSTLYIAASQPGDSATYLCAATDSWGKLQFGAGTQVVVTP
Vbeta: DTGVSQNPRHKITKRGQNVTFRCDPISEHNRLYWYRQTLGQGPEFLTYFRNEAQLEKSRLLSDRFSAERPKGSFSTLEIQRTEQGDSAMYLCASSLFSRGTNYGYTFGSGTRLTVV

binding result (PAEP peptide on HLA [2]): recognises
B2: TCR of SEQ ID NOs 475 and 476 (TCR, V domains shown)
Valpha: QKEVEQNSGPLSVPEGAIASLNCTYSDRGSQSFFWYRQYSGKSPELIMFIYSNGDKEDGRFTAQLNKASQYVSLLIRDSQPSDSATYLCAVDGSYIPTFGRGTSLIVHP
Vbeta: NAGVTQTPKFRVLKTGQSMTLLCAQDMNHEYMYWYRQDPGMGLRLIHYSVGEGTTAKGEVPDGYNVSRLKKQNFLLGLESAAPSQTSVYFCASSSGGADTGELFFGEGSRLTVL

binding result (LGSN peptide on HLA): recognises
B3: TCR of SEQ ID NOs 417 and 418 (TCR, V domains shown)
Valpha: KQEVTQIPAALSVPEGENLVLNCSFTDSAIYNLQWFRQDPGKGLTSLLLIQSSQREQTSGRLNASLDKSSGRSTLYIAASQPGDSATYLCAVRAQGGSEKLVFGKGTKLTVNP
Vbeta: NAGVTQTPKFRILKIGQSMTLQCTQDMNHNYMYWYRQDPGMGLKLIYYSVGAGITDKGEVPNGYNVSRSTTEDFPLRLELAAPSQTSVYFCASSYLGQDPEGAEAFFGQGTRLTVV

binding result (BRDT peptide on HLA): recognises
B4: TCR of SEQ ID NOs 319 and 320 (TCR, V domains shown)
Valpha: KQEVTQIPVALSVPEGENLVLNCSFTDSAIYNLQWFRQDPGKGLTSLLLIQSSQREQTSGRLNASLDKSSGRSTLYIAASQPGDSATYLCAVKGGANNLFFGTGTRLTVIP
Vbeta: NAGVTQTPKFRILKIGQSMTLQCTQDMNHNYMYWYRQDPGMGLKLIYYSVGAGITDKGEVPNGYNVSRSTTEDFPLRLLSAAPSQTSVYFCASRGDGDRSPLHFGNGTRLTVT

binding result (BRDT peptide on HLA): recognises
B5: TCR of SEQ ID NOs 321 and 322 (TCR, V domains shown)
Valpha: KQEVTQIPAALSVPEGENLVLNCSFTDSAIYNLQWFRQDPGKGLTSLLLIQSSQREQTSGRLNASLDKSSGRSTLYIAASQPGDSATYLCAVRGGYQKVTFGTGTKLQVIP
Vbeta: NAGVTQTPKFQVLKTGQSMTLQCAQDMNHNSMYWYRQDPGMGLRLIHYSVGAGITDQGEVPNGYNVSRSTTEDFPLRLLSAAPSQTSVYFCASRGDGDRSPLHFGNGTRLTVT

binding result (PAEP peptide on HLA [1]): recognises
B6: TCR of SEQ ID NOs 483 and 484 (TCR, V domains shown)
Valpha: ELKVEQNPLFLSMQEGKNYTIYCNYSTTSDRLYWYRQDPGKSLESLFVLLSNGAVKQEGRLMASLDTKARLSTLHITAAVHDLSATYFCAVGAYSGAGSYQLTFGKGTKLSVIP
Vbeta: NAGVIQNPRHLVRRRGQEARLRCSPMKGHSHVYWYRQLPEEGLKFMVYLQKENIIDESGMPKERFSAEFPKEGPSILRIQQVVRGDSAAYFCASSKYPAGEANEKLFFGSGTQLSVL

binding result (KLK4 peptide on HLA): recognises
B7: TCR of SEQ ID NOs 401 and 402 (TCR, V domains shown)
Valpha: KQEVTQIPAALSVPEGENLVLNCSFTDSAIYNLQWFRQDPGKGLTSLLLIQSSQREQTSGRLNASLDKSSGRSTLYIAASQPGDSATYLCAVSPPAAGNKLTFGGGTRVLVKP
Vbeta: NAGVTQTPKFRILKIGQSMTLQCAQDMNHNYMYWYRQDPGMGLKLIYYSVGAGITDKGEVPNGYNVSRSTTEDFPLRLELAAPSQTSVYFCASSLTWTGGFGYTFGSGTRLTVV

binding result (PIWIL1 peptide on HLA [3]): recognises
B8: TCR of SEQ ID NOs 497 and 498 (TCR, V domains shown)
Valpha: KQEVTQIPAALSVPEGENLVLNCSFTDSAIYNLQWFRQDPGKGLTSLLLIQSSQREQTSGRLNASLDKSSGRSTLYIAASQPGDSATYLCAARYNFNKFYFGSGTKLNVKP
Vbeta: NAGVTQTPKFQVLKTGQSMTLLCAQDMNHEYMYWYRQDPGMGLRLIHYSVGEGTTAKGEVPDGYNVSRSTTEDFPLRLLSAAPSQTSVYFCASSYTPGPSHEQYFGPGTRLTVT

binding result (KLK4 peptide on HLA): recognises
B9: TCR of SEQ ID NOs 403 and 404 (TCR, V domains shown)
Valpha: KQEVTQIPAALSVPEGENLVLNCSFTDSAIYNLQWFRQDPGKGLTSLLLIQSSQREQTSGRLNASLDKSSGRSTLYIAASQPGDSATYLCAVRPRGDSWGKLQFGAGTQVVVTP
Vbeta: NAGVTQTPKFQVLKTGQSMTLQCAQDMNHEYMSWYRQDPGMGLRLIHYSVGAGITDQGEVPNGYNVSRSTTEDFPLRLLSAAPSQTSVYFCASSPTGYGEAFFGQGTRLTVV

binding result (NPSR1 peptide on HLA): recognises
B10: TCR of SEQ ID NOs 441 and 442 (TCR, V domains shown)
Valpha: QKEVEQNSGPLSVPEGAIASLNCTYSDRGSQSFFWYRQYSGKSPELIMSIYSNGDKEDGRFTAQLNKASQYVSLLIRDSQPSDSATYLCAVNDSGGYQKVTFGTGTKLQVIP
Vbeta: NAGVTQTPKFQVLKTGQSMTLQCAQDMNHEYMSWYRQDPGMGLRLIHYSVGAGITDQGEVPNGYNVSRSTTEDFPLRLLSAAPSQTSVYFCASSYSPGNGYTFGSGTRLTVV

binding result (PIWIL1 peptide on HLA [4]): recognises
B11: TCR of SEQ ID NOs 507 and 508 (TCR, V domains shown)
Valpha: QKEVEQNSGPLSVPEGAIASLNCTYSDRGSQSFFWYRQYSGKSPELIMFIYSNGDKEDGRFTAQLNKASQYVSLLIRDSQPSDSATYLCAVKTSYDKVIFGPGTSLSVIP
Vbeta: NAGVTQTPKFQVLKTGQSMTLQCAQDMNHEYMSWYRQDPGMGLRLIHYSVGAGITDQGEVPNGYNVSRSTTEDFPLRLLSAAPSQTSVYFCASSYGAGAFYTFGSGTRLTVV

binding result (LGSN peptide on HLA): recognises
B12: TCR of SEQ ID NOs 415 and 416 (TCR, V domains shown)
Valpha: KQEVTQIPAALSVPEGENLVLNCSFTDSAIYNLQWFRQDPGKGLTSLLLIQSSQREQTSGRLNASLDKSSGRSTLYIAASQPGDSATYLCAVRGYQKVTFGTGTKLQVIP
Vbeta: NAGVTQTPKFQVLKTGQSMTLQCAQDMNHEYMSWYRQDPGMGLRLIHYSVGAGITDQGEVPNGYNVSRSTTEDFPLRLLSAAPSQTSVYFCASSPGIGELFFGEGSRLTVL

binding result (PIWIL1 peptide on HLA [3]): recognises
B13: TCR of SEQ ID NOs 499 and 500 (TCR, V domains shown)
Valpha: KQEVTQIPAALSVPEGENLVLNCSFTDSAIYNLQWFRQDPGKGLTSLLLIQSSQREQTSGRLNASLDKSSGRSTLYIAASQPGDSATYLCAVIDRAYSGAGSYQLTFGKGTKLSVIP
Vbeta: NAGVTQTPKFRILKIGQSMTLQCTQDMNHNYMYWYRQDPGMGLKLIHYSVGAGITDQGEVPNGYNVSRSTTEDFPLRLLSAAPSQTSVYFCASSLGVSYNEQFFGPGTRLTVL

binding result (ASCL2 peptide on HLA): recognises
B14: TCR of SEQ ID NOs 299 and 300 (TCR, V domains shown)
Valpha: QKEVEQNSGPLSVPEGAIASLNCTYSDRGSQSFFWYRQYSGKSPELIMSIYSNGDKEDGRFTAQLNKASQYVSLLIRDSQPSDSATYLCAVDTGRRALTFGSGTRLQVQP
Vbeta: NAGVTQTPKFQVLKTGQSMTLLCAQDMNHNSMYWYRQDPGMGLRLIYYSASEGTTDKGEVPNGYNVSRLNKREFSLRLESAAPSQTSVYFCASSVGGTYGYTFGSGTRLTVV

binding result (PAEP peptide on HLA [2]): recognises
B15: TCR of SEQ ID NOs 477 and 478 (TCR, V domains shown)
Valpha: QKEVEQNSGPLSVPEGAIASLNCTYSDRGSQSFFWYRQYSGKSPELIMSIYSNGDKEDGRFTAQLNKASQYVSLLIRDSQPSDSATYLCAVSGSARQLTFGSGTQLTVLP
Vbeta: DGGITQSPKYLFRKEGQNVTLSCEQNLNHDAMYWYRQDPGQGLRLIYYSQIVNDFQKGDIAEGYSVSREKKESFPLTVTSAQKNPTAFYLCASSPFADDSYGYTFGSGTRLTVV

binding result (ASCL2 peptide on HLA): recognises
B16: TCR of SEQ ID NOs 301 and 302 (TCR, V domains shown)
Valpha: QKEVEQNSGPLSVPEGAIASLNCTYSDRGSQSFFWYRQYSGKSPELIMSIYSNGDKEDGRFTAQLNKASQYVSLLIRDSQPSDSATYLCAVDTGRRALTFGSGTRLQVQP
Vbeta: NAGVTQTPKFQVLKTGQSMTLQCAQDMNHNSMYWYRQDPGMGLRLIYYSASEGTTDKGEVPNGYNVSRLNKREFSLRLESAAPSQTSVYFCASSTGGSYGYTFGSGTRLTVV

binding result (PAEP peptide on HLA [5]): recognises
B17: TCR of SEQ ID NOs 469 and 470 (TCR, V domains shown)
Valpha: QKEVEQNSGPLSVPEGAIASLNCTYSDRGSQSFFWYRQYSGKSPELIMSIYSNGDKEDGRFTAQLNKASQYVSLLIRDSQPSDSATYLCAVRRNTDKLIFGTGTRLQVFP
Vbeta: DTGVSQNPRHKITKRGQNVTFRCDPISEHNRLYWYRQTLGQGPEFLTYFQNEAQLEKSRLLSDRFSAERPKGSFSTLEIQRTEQGDSAMYLCASSPRDRSPYGYTFGSGTRLTVV

binding result (PIWIL1 peptide on HLA [4]): recognises
B18: TCR of SEQ ID NOs 503 and 504 (TCR, V domains shown)
Valpha: QKEVEQNSGPLSVPEGAIASLNCTYSDRGSQSFFWYRQYSGKSPELIMFIYSNGDKEDGRFTAQLNKASQYVSLLIRDSQPSDSATYLCAVMGNTDKLIFGTGTRLQVFP
Vbeta: NAGVTQTPKFQVLKTGQSMTLQCAQDMNHEYMSWYRQDPGMGLRLIHYSVGAGITDQGEVPNGYNVSRSTTEDFPLRLLSAAPSQTSVYFCASSYGVGSPLHFGNGTRLTVT

binding result (XAGE1 peptide on HLA): recognises
B19: TCR of SEQ ID NOs 613 and 614 (TCR, V domains shown)
Valpha: QKEVEQNSGPLSVPEGAIASLNCTYSDRGSQSFFWYRQYSGKSPELIMSIYSNGDKEDGRFTAQLNKASQYVSLLIRDSQPSDSATYLCAVNEGYQKVTFGIGTKLQVIP
Vbeta: NAGVTQTPKFQVLKTGQSMTLQCAQDMNHEYMYWYRQDPGMGLRLIHYSVGAGITDQGEVPNGYNVSRSTTEDFPLRLLSAAPSQTSVYFCASSRDYDYGQYFGPGTRLTVT

binding result (NPSR1 peptide on HLA): recognises
B20: TCR of SEQ ID NOs 437 and 438 (TCR, V domains shown)
Valpha: QKEVEQNSGPLSVPEGAIASLNCTYSDRGSQSFFWYRQYSGKSPELIMSIYSNGDKEDGRFTAQLNKASQYVSLLIRDSQPSDSATYLCAVGGGADGLTFGKGTHLIIQP
Vbeta: NAGVTQTPKFRILKIGQSMTLQCTQDMNHNYMYWYRQDPGMGLKLIYYSVGAGITDKGEVPNGYNVSRSTTEDFPLRLELAAPSQTSVYFCASSYGNLGTEAFFGQGTRLTVV

binding result (PAEP peptide on HLA [5]): recognises
B21: TCR of SEQ ID NOs 471 and 472 (TCR, V domains shown)
Valpha: KQEVTQIPAALSVPEGENLVLNCSFTDSAIYNLQWFRQDPGKGLTSLLLIQSSQREQTSGRLNASLDKSSGRSTLYIAASQPGDSATYLCAVSPINDYKLSFGAGTTVTVRA
Vbeta: KAGVTQTPRYLIKTRGQQVTLSCSPISGHRSVSWYQQTPGQGLQFLFEYFSETQRNKGNFPGRFSGRQFSNSRSEMNVSTLELGDSALYLCASSLVGTGGSPLHFGNGTRLTVT
